# B1: VEGFR-Anti-IL-6 (sequences 1A-2A-3H, light chain 4A) (other)
# heavy: SDTGRPFVEMYSEIPEIIHMTEGRELVIPCRVTSPNITVTLKKFPLDTLIPDGKRIIWDSRKGFIISNATYKEIGLLTCEATVNGHLYKTNYLTHRQTNTIIDVVLSPSHGIELSVGEKLVLNCTARTELNVGIDFNWEYPSSKHQHKKLVNRDLKTQSGSEMKKFLSTLTIDGVTRSDQGLYTCAASSGLMTKKNSTFVRVHEKGGGGSGGGGSEVQLVESGGGLVQPGGSLRLSCAASGFTFSPFAISWVRQAPGKGLEWVAKISPGGSWTYYSDTVTDRFTFSLDTSKSTAYLQMNSLRAEDTAVYYCARQLWGYYALDVWGQGTLVTVSSASTKGPSVFPLAPSSKSTSGGTAALGCLVKDYFPEPVTVSWNSGALTSGVHTFPAVLQSSGLYSLSSVVTVPSSSLGTQTYICNVNHKPSNTKVDKKVEPKSCDKTHTCPPCPAPEAAGAPSVFLFPPKPKDTLMISRTPEVTCVVVDVSHEDPEVKFNWYVDGVEVHNAKTKPREEQYNSTYRVVSVLTVLHQDWLNGKEYKCKVSNKALPAPIEKTISKAKGQPREPQVYTLPPSREEMTKNQVSLTCLVKGFYPSDIAVEWESNGQPENNYKTTPPVLDSDGSFFLYSKLTVDKSRWQQGNVFSCSVMHEALHNHYTQKSLSCSPGK
# light: DIQLTQSPSSLSASVGDRVTITCSASISVSYLYWYQQKPGKAPKLLIYDDSSLASGVPSRFSGSGSGTDFTLTISSLQPEDFATYYCQQWSGYPYTFGQGTKVEIKRTVAAPSVFIFPPSDEQLKSGTASVVCLLNNFYPREAKVQWKVDNALQSGNSQESVTEQDSKDSTYSLSSTLTLSKADYEKHKVYACEVTHQGLSSPVTKSFNRGEC
# notes: linker 2A is the double Gly-Gly-Gly-Gly-Ser repeat
# B2: VEGFR-AntiIL6 (other)
# heavy: SDTGRPFVEMYSEIPEIIHMTEGRELVIPCRVTSPNITVTLKKFPLDTLIPDGKRIIWDSRKGFIISNATYKEIGLLTCEATVNGHLYKTNYLTHRQTNTIIDVVLSPSHGIELSVGEKLVLNCTARTELNVGIDFNWEYPSSKHQHKKLVNRDLKTQSGSEMKKFLSTLTIDGVTRSDQGLYTCAASSGLMTKKNSTFVRVHEKGGGGSGGGGSEVQLVESGGGLVQPGGSLRLSCAASGFTFSPFAMHWVRQAPGKGLEWVAKISPGGSWTYYSDTVTDRFTFSLDTSKSTAYLQMNSLRAEDTAVYYCARQAWGYYALDIWGQGTLVTVSSASTKGPSVFPLAPSSKSTSGGTAALGCLVKDYFPEPVTVSWNSGALTSGVHTFPAVLQSSGLYSLSSVVTVPSSSLGTQTYICNVNHKPSNTKVDKKVEPKSCDKTHTCPPCPAPEAAGAPSVFLFPPKPKDTLMISRTPEVTCVVVDVSHEDPEVKFNWYVDGVEVHNAKTKPREEQYNSTYRVVSVLTVLHQDWLNGKEYKCKVSNKALPAPIEKTISKAKGQPREPQVYTLPPSREEMTKNQVSLTCLVKGFYPSDIAVEWESNGQPENNYKTTPPVLDSDGSFFLYSKLTVDKSRWQQGNVFSCSVMHEALHNHYTQKSLSCSPGK
# light: DIQLTQSPSSLSASVGDRVTITCSASISVSYLYWYQQKPGKAPKLLIYDDSSLASGVPSRFSGSGSGTDFTLTISSLQPEDFATYYCQQWSGYPYTFGQGTKVEIKRTVAAPSVFIFPPSDEQLKSGTASVVCLLNNFYPREAKVQWKVDNALQSGNSQESVTEQDSKDSTYSLSSTLTLSKADYEKHKVYACEVTHQGLSSPVTKSFNRGEC
# notes: VEGF trap (VEGFR1 domain 2 - VEGFR2 domain 3) fused by a GS linker to the N-terminus of the anti-IL-6 IgG1 heavy chain; also called VEGF Trap-anti-IL6 antibody fusion
# B3: VEGFR-AntiIL6-OG1802 (other)
# heavy: SDTGRPFVEMYSEIPEIIHMTEGRELVIPCRVTSPNITVTLKKFPLDTLIPDGKRIIWDSRKGFIISNATYKEIGLLTCEATVNGHLYKTNYLTHRQTNTIIDVVLSPSHGIELSVGEKLVLNCTARTELNVGIDFNWEYPSSKHQHKKLVNRDLKTQSGSEMKKFLSTLTIDGVTRSDQGLYTCAASSGLMTKKNSTFVRVHEKGGGGSGGGGSEVQLVESGGGLVQPGGSLRLSCAASGFTFSPFAMHWVRQAPGKGLEWVAKISPGGSWTYYSDTVTDRFTFSLDTSKSTAYLQMNSLRAEDTAVYYCARQAWGYYALDIWGQGTLVTVSSASTKGPSVFPLAPSSKSTSGGTAALGCLVKDYFPEPVTVSWNSGALTSGVHTFPAVLQSSGLYSLSSVVTVPSSSLGTQTYICNVNHKPSNTKVDKKVEPKSCDKTHTCPPCPAPEAAGAPSVFLFPPKPKDTLMISRTPEVTCVVVDVSHEDPEVKFNWYVDGVEVHNAKTKPREEQYNSTYRVVSVLTVLHQDWLNGKEYKCKVSNKALPAPIEKTISKAKGQPREPQVYTLPPSREEMTKNQVSLTCLVKGFYPSDIAVEWESNGQPENNYKTTPPVLDSDGSFFLYSKLTVDKSRWQQGNVFSCSVMHEALHNHYTQKSLSCSPGK
# light: DIQLTQSPSSLSASVGDRVTITCSASISVSYLYWYQQKPGKAPKLLIYDDSSLASGVPSRFSGSGSGTDFTLTISSLQPEDFATYYCQQWSGYPYTFGQGTKVEIKRTVAAPSVFIFPPSDEQLKSGTASVVCLLNNFYPREAKVQWKVDNALQSGNSQESVTEQDSKDSTYSLSSTLTLSKADYEKHKVYACEVTHQGLSSPVTKSFNRGEC
# modifications: OG1802 phosphorylcholine biopolymer (about 794 kDa) on Cys L443C (EU numbering; 660C in SEQ ID NO: 170) by maleimide; one polymer per molecule
# notes: Polymer conjugate of m3; also called VEGFR-AntiIL6 bioconjugate
# B4: VEGFR_variant_3-Anti-IL-6 (T94I/H95I) (other)
# fusion: SDTGRPFVEMYSEIPEIIHMTEGRELVIPCRVTSPNITVTLKKFPLDTLIPDGKRIIWDSRKGFIISNATYKEIGLLTCEATVNGHLYKTNYLIIRQTNTIIDVVLSPSHGIELSVGEKLVLNCTARTELNVGIDFNWEYPSSKHQHKKLVNRDLKTQSGSEMKKFLSTLTIDGVTRSDQGLYTCAASSGLMTKKNSTFVRVHEKGGGGSGGGGSEVQLVESGGGLVQPGGSLRLSCAASGFTFSPFAISWVRQAPGKGLEWVAKISPGGSWTYYSDTVTDRFTFSLDTSKSTAYLQMNSLRAEDTAVYYCARQLWGYYALDVWGQGTLVTVSSASTKGPSVFPLAPSSKSTSGGTAALGCLVKDYFPEPVTVSWNSGALTSGVHTFPAVLQSSGLYSLSSVVTVPSSSLGTQTYICNVNHKPSNTKVDKKVEPKSCDKTHTCPPCPAPEAAGAPSVFLFPPKPKDTLMISRTPEVTCVVVDVSHEDPEVKFNWYVDGVEVHNAKTKPREEQYNSTYRVVSVLTVLHQDWLNGKEYKCKVSNKALPAPIEKTISKAKGQPREPQVYTLPPSREEMTKNQVSLTCLVKGFYPSDIAVEWESNGQPENNYKTTPPVLDSDGSFFLYSKLTVDKSRWQQGNVFSCSVMHEALHNHYTQKSLSCSPGK
# light: DIQLTQSPSSLSASVGDRVTITCSASISVSYLYWYQQKPGKAPKLLIYDDSSLASGVPSRFSGSGSGTDFTLTISSLQPEDFATYYCQQWSGYPYTFGQGTKVEIKRTVAAPSVFIFPPSDEQLKSGTASVVCLLNNFYPREAKVQWKVDNALQSGNSQESVTEQDSKDSTYSLSSTLTLSKADYEKHKVYACEVTHQGLSSPVTKSFNRGEC
# B5: anti-IL-6 antibody, heavy chain S35H G66D, light chain M32L/M50D/N52S/M88Q (antibody, human IgG1, V domains shown)
# VH: EVQLVESGGGLVQPGGSLRLSCAASGFTFSPFAMHWVRQAPGKGLEWVAKISPGGSWTYYSDTVTDRFTFSLDTSKSTAYLQMNSLRAEDTAVYYCARQLWGYYALDIWGQGTLVTVSS
# VL: DIQLTQSPSSLSASVGDRVTITCSASISVSYLYWYQQKPGKAPKLLIYDDSSLASGVPSRFSGSGSGTDFTLTISSLQPEDFATYYCQQWSGYPYTFGQGTKVEIK
# notes: see m23; engineered human IgG1; also called S35H G66D double mutant
# B6: anti-IL-6 antibody, heavy chain S35H G66D, light chain wild-type (antibody, human IgG1, V domains shown)
# VH: EVQLVESGGGLVQPGGSLRLSCAASGFTFSPFAMHWVRQAPGKGLEWVAKISPGGSWTYYSDTVTDRFTFSLDTSKSTAYLQMNSLRAEDTAVYYCARQLWGYYALDIWGQGTLVTVSS
# VL: DIQLTQSPSSLSASVGDRVTITCSASISVSYMYWYQQKPGKAPKLLIYDMSNLASGVPSRFSGSGSGTDFTLTISSLQPEDFATYYCMQWSGYPYTFGQGTKVEIK
# notes: as for B5
# B7: VEGFR-Fc (VEGF trap Fc fusion, sequence 6A) (Fc fusion)
# chain: SDTGRPFVEMYSEIPEIIHMTEGRELVIPCRVTSPNITVTLKKFPLDTLIPDGKRIIWDSRKGFIISNATYKEIGLLTCEATVNGHLYKTNYLTHRQTNTIIDVVLSPSHGIELSVGEKLVLNCTARTELNVGIDFNWEYPSSKHQHKKLVNRDLKTQSGSEMKKFLSTLTIDGVTRSDQGLYTCAASSGLMTKKNSTFVRVHEKDKTHTCPPCPAPEAAGAPSVFLFPPKPKDTLMISRTPEVTCVVVDVSHEDPEVKFNWYVDGVEVHNAKTKPREEQYNSTYRVVSVLTVLHQDWLNGKEYKCKVSNKALPAPIEKTISKAKGQPREPQVYTLPPSREEMTKNQVSLTCLVKGFYPSDIAVEWESNGQPENNYKTTPPVLDSDGSFFLYSKLTVDKSRWQQGNVFSCSVMHEALHNHYTQKSLSCSPGK
# notes: VEGF trap with engineered IgG1 Fc (L234A, L235A, G237A, L443C); also called VEGFR-Trap Fc fusion
# Assays:
# [1] = target: T1, VEGF-A165 (UniProt P15692-4 27-191); assay: Biacore T200 SPR at 37 C, binder captured on Protein A chip, VEGF-A165 0.19 to 15 nM in five steps, 60 min dissociation, 1:1 Langmuir fit
# T1 construct: analyte of the Biacore assays
# T1 sequence (P15692 other isoform, or with tags, fused parts or gaps limits assumed): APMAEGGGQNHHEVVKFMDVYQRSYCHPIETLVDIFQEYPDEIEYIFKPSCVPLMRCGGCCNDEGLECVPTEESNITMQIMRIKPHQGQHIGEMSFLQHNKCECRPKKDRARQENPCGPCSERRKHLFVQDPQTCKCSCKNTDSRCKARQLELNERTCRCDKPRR
# Method: FIGS. 14A-14F illustrate the results for a series of Biacore assays used to determine the affinity between Anti-VEGF agents and VEGF. Binding kinetics between molecules were measured using a Biacore T200 (GE Healthcare) at 37° C. in buffer HBS-EP+ containing 1 mg/mL BSA. […] The sensor chip surface was regenerated by 60 seconds injection of 10 mM Glycine, pH 1.7 at a flow rate of 50 μl/min. All sensorgrams were double reference subtracted and fit using a 1:1 Langmuir binding model.
# [2] = target: VEGF (UniProt P15692-4 27-191, limits assumed); assay: cell-based or functional assay
# Target sequence in this assay (P15692 other isoform, or with tags, fused parts or gaps limits assumed): as above
# [3] = target: T2, VEGF (UniProt P15692-4 27-191, limits assumed); assay: KinExA 3200, calculated as Kd x kon, 37 C
# T2 construct: also called VEGF-A
# T2 sequence (P15692 other isoform, or with tags, fused parts or gaps limits assumed): as above
# [4] = target: T3, human IL-6 (human, UniProt P05231 30-212); assay: KinExA 3200, kinetic measurement, 37 C
# T3 sequence (P05231 30-212 limits assumed): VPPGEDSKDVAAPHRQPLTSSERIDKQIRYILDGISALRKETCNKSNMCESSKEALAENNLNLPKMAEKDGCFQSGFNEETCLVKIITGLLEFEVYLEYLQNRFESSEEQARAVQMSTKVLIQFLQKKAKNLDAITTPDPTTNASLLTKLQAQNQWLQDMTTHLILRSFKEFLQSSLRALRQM
# [5] = target: T3, human IL-6; assay: KinExA 3200, calculated as Kd x kon, 37 C
# [6] = target: T2, VEGF; assay: KinExA 3200, in solution, 37 C
# [7] = target: T2, VEGF; assay: KinExA 3200, kinetic measurement, 37 C
# [8] = target: T3, human IL-6; assay: KinExA 3200, in solution, 37 C
# [9] = target: recombinant human IL-6 (human, UniProt P05231 30-212); assay: SPR, antibody captured on Protein A, 37 C
# Sequence of recombinant human IL-6 (P05231 30-212 limits assumed): as above
# Method: Antibodies were captured on a Protein A chip (GE) by injecting 1:20 cell supernatant dilutions at 10 μL/min for 60 seconds. […] The sensor chip was regenerated by a 60 seconds injection of 10 mM Glycine pH 1.7 at the flow rate of 50 μL/min. […] For this setup, 1 μg/mL of purified antibody was injected over a Protein A chip at 10 μL/min for 25 seconds. […] The sensor chip was regenerated by a 60 seconds injection of 10 mM Glycine pH 1.7 at flow rate of 50 μL/min. Data analysis for supernatant and purified samples were performed using BIAevaluation software (GE). All sensorgrams were double reference subtracted and fit using a 1:1 Langmuir binding model.
# [10] = target: T1, VEGF-A165; assay: SPR (Biacore T200), 37 C, binder captured on a Protein A chip, VEGF-A165 0.19 to 15 nM flowed over, 1:1 Langmuir fit
binder,measurement,setting,value
B1,Kd,[1],7.98 pM
same,koff,[1],0.000603 s⁻¹
same,kon,[1],7.55e+07 M⁻¹ s⁻¹
same,"cell-based VEGF stimulated VEGFR reporter assay (KDR/VEGF HEK293, luminescence), IC50",[2],180 pM
B2,koff,[3],8.49e-05 s⁻¹
same,kon,[4],1.15e+07 M⁻¹ s⁻¹
same,koff,[5],0.000242 s⁻¹
same,Kd,[6],2.1 pM
same,kon,[7],4.04e+07 M⁻¹ s⁻¹
same,Kd,[8],21.1 pM
B3,koff,[3],3.83e-06 s⁻¹
same,kon,[4],8e+06 M⁻¹ s⁻¹
same,koff,[5],9.66e-05 s⁻¹
same,Kd,[6],1.02 pM
same,kon,[7],3.75e+06 M⁻¹ s⁻¹
same,Kd,[8],12.1 pM
B4,Kd,[1],18.7 pM
same,koff,[1],0.00266 s⁻¹
same,kon,[1],1.42e+08 M⁻¹ s⁻¹
B5,fold increase in affinity,[9],~1.3 fold
B6,fold increase in affinity,[9],~2 fold
B7,Kd,[10],10.2 pM
same,koff,[10],9.29e-05 s⁻¹
same,kon,[10],9.14e+06 M⁻¹ s⁻¹
